Reference: US20260109758A1 (BIOSION, published 2026)
Like-named read-outs stand apart in the source and are kept apart here.

B1: Tezepelumab (antibody, human IgG2, lambda, V domains shown)
VH: QMQLVESGGGVVQPGRSLRLSCAASGFTFRTYGMHWVRQAPGKGLEWVAVIWYDGSNKHYADSVKGRFTITRDNSKNTLNLQMNSLRAEDTAVYYCARAPQWELVHEAFDIWGQGTMVTVSS
VL: SYVLTQPPSVSVAPGQTARITCGGNNLGSKSVHWYQQKPGQAPVLVVYDDSDRPSWIPERFSGSNSGNTATLTISRGEAGDEADYYCQVWDSSSDHVVFGGGTKLTVLG
notes: Positive control, prepared in-house; also called an anti-TSLP antibody
B2: BSI-502-006 (bispecific antibody, human IgG1, kappa)
heavy: QVQLVQSGAEVKKPGASVKVSCKASGYTFTTYWMHWVRQAPGQGLEWMGVIDPSDSDTTYNQKFKGRVTMTRDTSTSTVYMELSSLRSEDTAVYYCTRSLDGYYDYWGQGTLVTVSSASTKGPSVFPLAPSSKSTSGGTAALGCLVKDYFPEPVTVSWNSGALTSGVHTFPAVLQSSGLYSLSSVVTVPSSSLGTQTYICNVNHKPSNTKVDKKVEPKSCDKTHTCPPCPAPEAQGGPSVFLFPPKPKDTLYITREPEVTCVVVDVSHEDPEVKFNWYVDGVEVHNAKTKPREEQYNSTYRVVSVLTVLHQDWLNGKEYKCQVSNKALPAPIEKTISKAKGQPREPQVYTLPPSRDELTKNQVSLTCLVKGFYPSDIAVEWESNGQPENNYKTTPPVLDSDGSFFLYSKLTVDKSRWQQGNVFSCSVMHEALHNHYTQKSLSLSPGKGGGGSGGGGSDIQMTQSPSSLSASVGDRVTITCRTSENIYSYLAWYQQKPGKAPKFLVYNAKTLAEGVPSRFSGSGSGTDFTLTISSLQPEDFATYYCQHYYGPPTWTFGQGTKVEIKGGGGSGGGGSGGGGSGGGGSEVQLVESGGGLVQPGGSLRLSCAASGFTFSTYGMSWVRQAPGKGLVWVATINSNGGSTSYPDSVKGRFTISRDNAKNTLYLQMNSLRAEDTAVYYCARFFRFRNAMDYWGQGTLVTVSS
light: DIQMTQSPSSLSASVGDRVTITCRPTENIYSYLAWYQQKPGKAPKLLIYFARTLAEGVPSRFSGSGSGTDFTLTISSLQPEDFATYYCQHHYGTPWTFGGGTKVEIKRTVAAPSVFIFPPSDEQLKSGTASVVCLLNNFYPREAKVQWKVDNALQSGNSQESVTEQDSKDSTYSLSSTLTLSKADYEKHKVYACEVTHQGLSSPVTKSFNRGEC
notes: hu1C5F12E9-V8 IgG with an anti-IL4R scFv (VL-VH) at the C-terminus of the heavy chain; AQQ and YTE already stand in the entry
B3: huC2C1A1A1-V15(IgG1) (antibody)
heavy: EVQLVESGGGLVQPGGSLRLSCAASGFTFSTYGMSWVRQAPGKGLVWVATINSNGGSTSYPDSVKGRFTISRDNAKNTLYLQMNSLRAEDTAVYYCARFFRFRNAMDYWGQGTLVTVSSASTKGPSVFPLAPSSKSTSGGTAALGCLVKDYFPEPVTVSWNSGALTSGVHTFPAVLQSSGLYSLSSVVTVPSSSLGTQTYICNVNHKPSNTKVDKKVEPKSCDKTHTCPPCPAPEAQGGPSVFLFPPKPKDTLYITREPEVTCVVVDVSHEDPEVKFNWYVDGVEVHNAKTKPREEQYNSTYRVVSVLTVLHQDWLNGKEYKCQVSNKALPAPIEKTISKAKGQPREPQVYTLPPSRDELTKNQVSLTCLVKGFYPSDIAVEWESNGQPENNYKTTPPVLDSDGSFFLYSKLTVDKSRWQQGNVFSCSVMHEALHNHYTQKSLSLSPG
light: DIQMTQSPSSLSASVGDRVTITCRTSENIYSYLAWYQQKPGKAPKFLVYNAKTLAEGVPSRFSGSGSGTDFTLTISSLQPEDFATYYCQHYYGPPTWTFGQGTKVEIKRTVAAPSVFIFPPSDEQLKSGTASVVCLLNNFYPREAKVQWKVDNALQSGNSQESVTEQDSKDSTYSLSSTLTLSKADYEKHKVYACEVTHQGLSSPVTKSFNRGEC
notes: Monospecific control, full-length IgG1; also called huC2C1A1A-V15(IgG1); anti-IL4R huC2C1A1A1-V15

Key:
[1] = target: T1, biotin-labeled human TSLP-Fc (human, biotin-labeled); assay: cell-based blocking FACS: antibody pre-mixed with biotin human TSLP-Fc; blocked binding to cell-surface TSLPR/IL7Ra on HEK293T-TSLPR/IL7R/STAT5-Luc 5C5 cells
T1 construct: also called TSLP-Fc protein; TSLP-Fc-biotin
Experimental: (§1) The cells were prepared following the instruction of lipofectamine 3000 transfection reagent (Thermo Fisher), by transfecting HEK293T cells (ATCC® CRL-11268) with pCMV-T-P plasmids inserted with TSLPR coding sequence between EcoRI and Xba1 sites and pCMV3-SP plasmids inserted with IL7Ra coding sequence between HindIII and Xba1 sites as well as pGL4.52 [luc2P/STAT5RE/Hygro](Promega).
(§2) The cells were harvested from cell culture flasks, washed twice and re-suspended in phosphate buffered saline (PBS) containing 2% v/v Fetal Bovine Serum (FACS buffer). […] Cells were washed twice with FACS buffer, and then added and incubated with 100 μL/well R-Phycoerythrin Streptavidin (1:500 dilution in FACS buffer, Jackson Immunoresearch, Cat #016-110-084) for 40 minutes at 4° C. in dark. Cells were washed twice and re-suspended in FACS buffer. Fluorescence was measured using a Becton Dickinson FACS Canto II-HTS equipment. Data was analyzed using Graphpad Prism and IC₅₀ values were reported.

[2] = target: T1, biotin-labeled human TSLP-Fc; assay: as above; remark: listed apart in the source
Experimental: as §1, §2

[3] = target: T2, recombinant human IL4Rα-his (human, UniProt P24394 26-231, limits assumed, biotin-labeled in the capture ELISA); assay: competitive ELISA: coated human IL4Rα-his, antibody titrated; blocked ligand biotin human IL4
T2 construct: In-house made; not shown: His tag at the C-terminus
Experimental: Briefly, 100 μL human IL4Rα-his proteins (prepared in-house, IL4Rα of SEQ ID NO: 33 with C-terminal His tag) were coated on 96-well micro plates at 2 μg/mL in PBS overnight at 4° C. The next day, plates were washed with wash buffer (PBS+0.05% w/v Tween-20, PBST), and blocked with 5% w/v non-fatty milk in PBST for 2 hours at 37° C. Plates were then washed again using wash buffer. Serially diluted bispecific antibodies or the controls (starting at 100 nM with a 5-fold serial dilution) in 2.5% w/v non-fatty milk in PBST, 100 μL per well, were added to the IL4Rα bound plates, and incubated at 37° C. for 40 minutes. […] Plates were washed again using wash buffer. Thereafter, the plates were added with 100 μL/well of streptavidin conjugated HRP (1:10000 dilution in PBST buffer, Jackson Immunoresearch, Cat #016-030-084) and incubated for 40 minutes at 37° C. Plates were washed again using wash buffer. Finally, TMB was added and the reaction was stopped using 1M H₂SO₄, and the absorbance was read at 450 nm. Data was analyzed using Graphpad Prism and IC₅₀ values were reported.

[4] = target: T2, recombinant human IL4Rα-his; assay: capture ELISA: antibody captured on anti-human IgG Fc F(ab')2, biotin human IL4Rα-his, SA-HRP
Experimental: (§3) Briefly, 96-well plates were coated with 2 μg/mL AffiniPure F(ab′)₂ Fragment Goat Anti-Human IgG, Fey fragment specific (Jackson Immuno Research, Cat #109-006-008) in PBS, 100 μL/well, overnight at 4° C. Plates were washed once with wash buffer (PBS+0.05% w/v Tween-20, PBST) and then blocked with 200 μL/well blocking buffer (5% w/v non-fatty milk in PBST) for 2 hours at 37° C. […] After a final wash, plates were incubated with 100 μL/well ELISA substrate TMB (Innoreagents, Cat #TMB-S-002). The reaction was stopped in 10 minutes at 25° C. with 50 μL/well 1M H₂SO₄, and the absorbance was read on a microplate reader using dual wavelength mode with 450 nm for TMB and 630 nm as the reference wavelength. Data was analyzed using Graphpad Prism and EC₅₀ values were reported.

[5] = target: T3, recombinant human TSLP-his (human, UniProt Q969D9 29-159, biotin-labeled in the ELISAs); assay: SPR Biacore; TSLP-his amine-coupled to CM5 chip, antibody as analyte; 1:1 Langmuir fit
T3 construct: In-house made; not shown: His tag at the C-terminus
Experimental: Un-reacted moieties on the biosensor surface were blocked with ethanolamine. Then, serially diluted purified bispecific antibodies and the controls (2-fold serial dilution in HBS-EP⁺ buffer starting at 100 nM) were respectively flowed onto the chip at a flow rate of 30 μL/min. The antigen-antibody association kinetics was followed for 4 minutes and the dissociation kinetics was followed for 13 minutes.

[6] = target: T4, human IL4Rα expressed on 293F-IL4Rα cell surface (human, UniProt P24394 26-825); assay: cell-based blocking FACS on 293F-IL4Rα cells; blocked ligand biotin human IL4
T4 construct: whole, on cells; also called human IL4Rα-expressing cells; cell surface IL4R
Experimental: (§4) Then, 1×10⁵ cells per well were incubated in 96 well-plates in 100 μL of serially diluted bispecific antibodies, the positive controls or negative control (starting at 100 nM with a 5-fold serial dilution) in FACS buffer for 40 minutes on ice. […] The plates were washed twice with FACS buffer, and then added and incubated for 40 minutes at 4° C. in dark with 100 μL/well R-Phycoerythrin Streptavidin (1:500 dilution in FACS buffer, Jackson Immunoresearch, Cat #016-110-084). Cells were washed twice and resuspended in FACS buffer. Fluorescence was measured using a Becton Dickinson FACS Canto II-HTS equipment. Data was analyzed using Graphpad Prism and IC₅₀ values were reported.

[7] = target: T2, recombinant human IL4Rα-his; assay: SPR Biacore T200; antibody captured on anti-human IgG CM5 chip, IL4Rα-his as analyte; 1:1 Langmuir fit
Experimental: The goat anti-human IgG (GE healthcare, Cat #BR100839, Human Antibody Capture Kit) was covalently linked to a CM5 chip (carboxy methyl dextran coated chip) via primary amines, using a standard amine coupling kit provided by Biacore (GE healthcare, Pittsburgh, PA, USA). Un-reacted moieties on the biosensor surface were blocked with ethanolamine. Then, purified bispecific antibodies of the disclosure at the concentration of 66.67 nM and the controls at 10 μg/mL, were flowed onto the chip at a flow rate of 10 μL/min. Then, serially diluted recombinant human IL4Rα-his (in house made, IL4Rα of SEQ ID NO: 33 with His tag at C-terminus) in HBS EP buffer (provided by Biacore) was flowed onto the chip at a flow rate of 30 μL/min. The association and dissociation curves were fit to a 1:1 Langmuir binding model using BIAcore evaluation software.

[8] = target: T4, human IL4Rα expressed on 293F-IL4Rα …; assay: flow cytometry on 293F-IL4Rα cells, PE anti-human IgG Fc
Experimental: (§5) Cells were washed twice with FACS buffer, and added with 100 μL/well R-Phycoerythrin AffiniPure Goat Anti-Human IgG, Fey fragment specific (1:1000 dilution in FACS buffer, Jackson Immunoresearch, Cat #109-115-098). Following an incubation of 40 minutes at 4° C. in dark, cells were washed three times and resuspended in FACS buffer. Fluorescence was measured using a Becton Dickinson FACS Canto II-HTS equipment. Data was analyzed using Graphpad Prism and EC₅₀ values were reported.

[9] = target: T2, recombinant human IL4Rα-his; assay: dual-binding ELISA: coated human IL4Rα-his, antibody titrated, detection with biotin human TSLP-his and SA-HRP; signal needs both antigens bound
Experimental: For the dual-binding ELISA, 96-well ELISA plates were firstly coated with 100 μL 1 μg/mL human IL4Rα-his protein (IL4Rα of SEQ ID NO: 33 with His tag at C terminus, prepared in-house) in PBS overnight at 4° C. ELISA plates were washed 4 times with wash buffer (PBS+0.05% Tween-20, PBST) and then blocked with 200 μL/well blocking buffer (5% w/v non-fatty milk in PBST) for 2 hours at 37° C. […] ELISA plates were washed again and incubated with SA-HRP (100 μl/well) for 40 minutes at 37° C. After the final wash, 100 μL/well TMB (Innoreagents) was added. The reaction was stopped 15 minutes later at room temperature with 50 μL/well 1M H₂SO₄, and the absorbance was read on a microplate reader using dual wavelength mode with 450 nm for TMB and 630 nm as the reference wavelength. The OD (450-630) values were plotted against antibody concentration. Data was analyzed using Graphpad Prism and EC₅₀ values were reported.

[10] = target: T2, recombinant human IL4Rα-his; assay: capture ELISA: antibody captured on anti-human IgG Fc F(ab')2, biotin human IL4Rα-his, SA-HRP; remark: listed apart in the source
Experimental: as §3

[11] = target: T4, human IL4Rα expressed on 293F-IL4Rα …; assay: flow cytometry on 293F-IL4Rα cells, PE anti-human IgG Fc; remark: listed apart in the source
Experimental: as §5

[12] = target: T4, human IL4Rα expressed on 293F-IL4Rα …; assay: cell-based blocking FACS on 293F-IL4Rα cells; blocked ligand biotin human IL4; remark: listed apart in the source
Experimental: as §4

Binder	IC50 [1] [nM]	IC50 [2] [nM]	IC50 [3] [nM]	EC50 [4] [nM]	Kd [5] [nM]	koff [5] [s⁻¹]	kon [5] [M⁻¹ s⁻¹]	IC50 [6] [nM]	Kd [7] [nM]	koff [7] [s⁻¹]	kon [7] [M⁻¹ s⁻¹]	EC50 [8] [nM]	EC50 [9] [nM]	EC50 [10] [nM]	EC50 [11] [nM]	IC50 [12] [nM]
B1	1.23	–	–	–	–	–	–	–	–	–	–	–	–	–	–	–
B2	–	1.13	0.38	0.182	< 0.0141	< 1e-05	710000	0.326	4.88	0.000244	50000	0.458	0.104	–	–	–
B3	–	–	–	0.0294	–	–	–	0.159	2.07	0.000348	168000	~0.162	–	0.0201	~0.165	0.172
